Experimental data: patent publication US20160264649A1

Tests used:
Test in all cases: cell-based or functional assay
[1] = biological target: HIV-1 Env of isolate MGRM-D-011 (subtype D) (HIV-1)
[2] = biological target: HIV-1 Env of isolate 98CN006 (subtype CRF08_BC) (HIV-1)
[3] = biological target: HIV-1 Env of isolate MGRM-F1-014 (subtype F) (HIV-1)
[4] = biological target: HIV-1 Env of isolate 92UG114 (subtype D) (HIV-1)
[5] = biological target: HIV-1 Env of isolate MGRM-F1-008 (subtype F) (HIV-1)
[6] = biological target: HIV-1 Env of pseudovirus isolate MGRM-G-004 (subtype G) (HIV-1)
[7] = biological target: HIV-1 Env of isolate MGRM-F1-023 (subtype F) (HIV-1)
[8] = biological target: HIV-1 Env of isolate MGRM-D-014 (subtype D) (HIV-1)
[9] = biological target: HIV-1 Env of isolate MGRM-D-008 (subtype D) (HIV-1)
[10] = biological target: HIV-1 Env of isolate MGRM-F1-006 (subtype F) (HIV-1)
[11] = biological target: HIV-1 Env of pseudovirus isolate MGRM-G-016 (subtype G) (HIV-1)
[12] = biological target: HIV-1 Env of isolate MGRM-D-012 (subtype D) (HIV-1)
[13] = biological target: HIV-1 Env of isolate MGRM-D-001 (subtype D) (HIV-1)
[14] = biological target: HIV-1 Env of isolate MGRM-D-021 (subtype D) (HIV-1)
[15] = biological target: HIV-1 Env of isolate MGRM-F1-017 (subtype F) (HIV-1)
[16] = biological target: HIV-1 Env of pseudovirus isolate MGRM-G-015 (subtype G) (HIV-1)
[17] = biological target: HIV-1 Env of pseudovirus isolate MGRM-G-014 (subtype G) (HIV-1)
[18] = biological target: HIV-1 Env of isolate MGRM-D-003 (subtype D) (HIV-1)
[19] = biological target: HIV-1 Env of isolate MGRM-D-022 (subtype D) (HIV-1)
[20] = biological target: envelope of aMLV pseudovirus (negative control)
[21] = biological target: HIV-1 Env of isolate MGRM-F1-021 (subtype F) (HIV-1)
[22] = biological target: HIV-1 Env of isolate MGRM-D-020 (subtype D) (HIV-1)
[23] = biological target: HIV-1 Env of isolate MGRM-D-005 (subtype D) (HIV-1)
[24] = biological target: HIV-1 Env of isolate MGRM-D-016 (subtype D) (HIV-1)
[25] = biological target: HIV-1 Env of pseudovirus isolate MGRM-G-017 (subtype G) (HIV-1)
[26] = biological target: HIV-1 Env of isolate MGRM-F1-010 (subtype F) (HIV-1)
[27] = biological target: HIV-1 Env of isolate MGRM-D-024 (subtype D) (HIV-1)
[28] = biological target: HIV-1 Env of isolate MGRM-D-019 (subtype D) (HIV-1)
[29] = biological target: HIV-1 Env of pseudovirus isolate MGRM-G-028 (subtype G) (HIV-1)
[30] = biological target: HIV-1 Env of isolate MGRM-D-002 (subtype D) (HIV-1)
[31] = biological target: HIV-1 Env of isolate MGRM-D-018 (subtype D) (HIV-1)
[32] = biological target: HIV-1 Env of pseudovirus isolate MGRM-G-006 (subtype G) (HIV-1)
[33] = biological target: HIV-1 Env of isolate MGRM-F1-020 (subtype F) (HIV-1)
[34] = biological target: HIV-1 Env of isolate 98CN009 (subtype CRF07_BC) (HIV-1)
[35] = biological target: HIV-1 Env of pseudovirus isolate MGRM-G-013 (subtype G) (HIV-1)
[36] = biological target: HIV-1 Env of isolate MGRM-F1-004 (subtype F) (HIV-1)
[37] = biological target: HIV-1 Env of isolate MGRM-F1-016 (subtype F) (HIV-1)
[38] = biological target: HIV-1 Env of isolate MGRM-F1-013 (subtype F) (HIV-1)
[39] = biological target: HIV-1 Env of pseudovirus isolate MGRM-G-024 (subtype G) (HIV-1)
[40] = biological target: HIV-1 Env of isolate MGRM-D-026 (subtype D) (HIV-1)
[41] = biological target: HIV-1 Env of pseudovirus isolate MGRM-G-025 (subtype G) (HIV-1)
[42] = biological target: HIV-1 Env of isolate MGRM-D-004 (subtype D) (HIV-1)
[43] = biological target: HIV-1 Env of pseudovirus isolate MGRM-G-019 (subtype G) (HIV-1)
[44] = biological target: HIV-1 Env of isolate 92UG005 (subtype D) (HIV-1)
[45] = biological target: HIV-1 Env of pseudovirus isolate MGRM-G-009 (subtype G) (HIV-1)
[46] = biological target: HIV-1 Env of isolate MGRM-D-029 (subtype D) (HIV-1)
[47] = biological target: HIV-1 Env of pseudovirus isolate MGRM-G-027 (subtype G) (HIV-1)
[48] = biological target: HIV-1 Env of pseudovirus isolate MGRM-G-001 (subtype G) (HIV-1)
[49] = biological target: HIV-1 Env of isolate MGRM-F1-015 (subtype F) (HIV-1)
[50] = biological target: HIV-1 Env of isolate 92UG024 (subtype D) (HIV-1)
[51] = biological target: HIV-1 Env of isolate MGRM-F1-018 (subtype F) (HIV-1)
[52] = biological target: HIV-1 Env of isolate MGRM-F1-012 (subtype F) (HIV-1)
[53] = biological target: HIV-1 Env of isolate MGRM-D-013 (subtype D) (HIV-1)
[54] = biological target: HIV-1 Env of isolate 92UG001 (subtype D) (HIV-1)
[55] = biological target: HIV-1 Env of isolate MGRM-F1-022 (subtype F) (HIV-1)
[56] = biological target: HIV-1 Env of pseudovirus isolate MGRM-G-011 (subtype G) (HIV-1)
[57] = biological target: HIV-1 Env of isolate MGRM-D-028 (subtype D) (HIV-1)
[58] = biological target: HIV-1 Env of isolate 92UG046 (subtype D) (HIV-1)

B1: PGT-128 (antibody, V domains shown)
VH: QPQLQESGPTLVEASETLSLTCAVSGDSTAACNSFWGWVRQPPGKGLEWVGSLSHCASYWNRGWTYHNPSLKSRLTLALDTPKNLVFLKLNSVTAADTATYYCARFGGEVLRYTDWPKPAWVDLWGRGTLVTVSS
VL: QSALTQPPSASGSPGQSITISCTGTSNNFVSWYQQHAGKAPKLVIYDVNKRPSGVPDRFSGSKSGNTASLTVSGLQTDDEAVYYCGSLVGNWDVIFGGGTKLTVL
IC50 (neutralization) [1]: 0.007 µg/mL | IC50 (neutralization) [2]: 0.015 µg/mL | IC50 (neutralization) [3]: 0.277 µg/mL | IC50 (neutralization) [4]: 0.083 µg/mL | IC50 (neutralization) [5]: > 50 µg/mL | IC50 [6]: > 50 µg/mL | IC50 (neutralization) [7]: 0.007 µg/mL | IC50 (neutralization) [8]: 0.013 µg/mL | IC50 (neutralization) [9]: 0.033 µg/mL | IC50 (neutralization) [10]: 0.763 µg/mL | IC50 [11]: > 50 µg/mL | IC50 (neutralization) [12]: > 50 µg/mL | IC50 (neutralization) [13]: 0.138 µg/mL | IC50 (neutralization) [14]: 0.014 µg/mL | IC50 (neutralization) [15]: 11.7 µg/mL | IC50 [16]: > 50 µg/mL | IC50 [17]: 0.004 µg/mL | IC50 (neutralization) [18]: 0.019 µg/mL | IC50 (neutralization) [19]: > 50 µg/mL | IC50 [20]: > 50 µg/mL | IC50 (neutralization) [21]: > 50 µg/mL | IC50 (neutralization) [22]: 0.011 µg/mL | IC50 (neutralization) [23]: 0.051 µg/mL | IC50 (neutralization) [24]: > 50 µg/mL | IC50 [25]: 0.319 µg/mL | IC50 (neutralization) [26]: 16.7 µg/mL | IC50 (neutralization) [27]: 0.067 µg/mL | IC50 (neutralization) [28]: > 50 µg/mL | IC50 [29]: 0.008 µg/mL | IC50 (neutralization) [30]: 0.011 µg/mL | IC50 (neutralization) [31]: 0.008 µg/mL | IC50 [32]: > 50 µg/mL | IC50 (neutralization) [33]: 0.355 µg/mL | IC50 (neutralization) [34]: 0.025 µg/mL | IC50 [35]: 0.995 µg/mL | IC50 (neutralization) [36]: 0.027 µg/mL | IC50 (neutralization) [37]: 1.21 µg/mL | IC50 (neutralization) [38]: 12.7 µg/mL | IC50 [39]: 0.095 µg/mL | IC50 (neutralization) [40]: > 50 µg/mL | IC50 [41]: 0.017 µg/mL | IC50 (neutralization) [42]: 24.9 µg/mL | IC50 [43]: 0.01 µg/mL | IC50 (neutralization) [44]: 0.018 µg/mL | IC50 [45]: > 50 µg/mL | IC50 (neutralization) [46]: > 50 µg/mL | IC50 [47]: 0.313 µg/mL | IC50 [48]: 0.019 µg/mL | IC50 (neutralization) [49]: > 50 µg/mL | IC50 (neutralization) [50]: > 50 µg/mL | IC50 (neutralization) [51]: 0.023 µg/mL | IC50 (neutralization) [52]: 0.007 µg/mL | IC50 (neutralization) [53]: 8.85 µg/mL | IC50 (neutralization) [54]: > 50 µg/mL | IC50 (neutralization) [55]: 4.54 µg/mL | IC50 [56]: 8.21 µg/mL | IC50 (neutralization) [57]: > 50 µg/mL | IC50 (neutralization) [58]: > 50 µg/mL

B2: PGT-130 (antibody, V domains shown)
VH: QVQLQESGPGLVKPAETLSLTCSVSGESINTGHYYWGWVRQVPGKGLEWIGHIHYTTAVLHNPSLKSRLTIKIYTLRNQITLRLSNVTAADTAVYHCVRSGGDILYYYEWQKPHWFSPWGPGIHVTVSS
VL: QSALTQPPSASGSLGQSVTISCNGTSSDIGGWNFVSWYQQFPGRAPRLIIFEVNKRPSGVPGRFSGSKSGNSASLTVSGLQSDDEGQYFCSSLFGRWDVVFGGGTKLTVL
IC50 (neutralization) [1]: 0.019 µg/mL | IC50 (neutralization) [2]: 0.258 µg/mL | IC50 (neutralization) [3]: 11.8 µg/mL | IC50 (neutralization) [4]: > 50 µg/mL | IC50 (neutralization) [5]: 0.065 µg/mL | IC50 [6]: > 50 µg/mL | IC50 (neutralization) [7]: 0.05 µg/mL | IC50 (neutralization) [8]: 0.061 µg/mL | IC50 (neutralization) [9]: > 50 µg/mL | IC50 (neutralization) [10]: > 50 µg/mL | IC50 [11]: > 50 µg/mL | IC50 (neutralization) [12]: > 50 µg/mL | IC50 (neutralization) [13]: > 50 µg/mL | IC50 (neutralization) [14]: 0.156 µg/mL | IC50 (neutralization) [15]: > 50 µg/mL | IC50 [16]: > 50 µg/mL | IC50 [17]: 2.23 µg/mL | IC50 (neutralization) [18]: 0.651 µg/mL | IC50 (neutralization) [19]: > 50 µg/mL | IC50 [20]: > 50 µg/mL | IC50 (neutralization) [21]: > 50 µg/mL | IC50 (neutralization) [22]: 24.7 µg/mL | IC50 (neutralization) [23]: > 50 µg/mL | IC50 (neutralization) [24]: > 50 µg/mL | IC50 [25]: > 50 µg/mL | IC50 (neutralization) [26]: > 50 µg/mL | IC50 (neutralization) [27]: > 50 µg/mL | IC50 (neutralization) [28]: > 50 µg/mL | IC50 [29]: 0.074 µg/mL | IC50 (neutralization) [30]: 0.869 µg/mL | IC50 (neutralization) [31]: 0.049 µg/mL | IC50 [32]: > 50 µg/mL | IC50 (neutralization) [33]: 9.73 µg/mL | IC50 (neutralization) [34]: 0.136 µg/mL | IC50 [35]: > 50 µg/mL | IC50 (neutralization) [36]: 0.023 µg/mL | IC50 (neutralization) [37]: > 50 µg/mL | IC50 (neutralization) [38]: > 50 µg/mL | IC50 [39]: 5.84 µg/mL | IC50 (neutralization) [40]: > 50 µg/mL | IC50 [41]: 8.45 µg/mL | IC50 (neutralization) [42]: 1.21 µg/mL | IC50 [43]: 27.9 µg/mL | IC50 (neutralization) [44]: 0.959 µg/mL | IC50 [45]: > 50 µg/mL | IC50 (neutralization) [46]: > 50 µg/mL | IC50 [47]: 4.14 µg/mL | IC50 [48]: 0.0198 µg/mL | IC50 (neutralization) [49]: > 50 µg/mL | IC50 (neutralization) [50]: > 50 µg/mL | IC50 (neutralization) [51]: > 50 µg/mL | IC50 (neutralization) [52]: > 50 µg/mL | IC50 (neutralization) [53]: 0.429 µg/mL | IC50 (neutralization) [54]: > 50 µg/mL | IC50 (neutralization) [55]: > 50 µg/mL | IC50 [56]: > 50 µg/mL | IC50 (neutralization) [57]: 0.825 µg/mL | IC50 (neutralization) [58]: > 50 µg/mL
